Results published in the supplement of paper PMC10219994.
± gives the standard deviation of the averaged measurements.

B1: library; a variant is named by its letters at N, in order (parent)
chain: GAGACCGCAACTGAAAAGTTGTGGNNNNNATAGTGAGTCGCTGCCTGCAAAGACACAACT

Variants of: B1
Assay: ligation selection enrichment (abundance after / before one-round selection) (fold); higher = more template-directed ligation activity
Settings: with T7Psub CACGGAUGCUAAUACGACUCACUAUA; MgCl2 25 mM; 42 °C; 4 h; pH 8.5
Procedure, shortened: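 Two independent reactions combined a T7-transcribed RNA ligase library with five randomized core positions (0.75 μM) and RNA substrate (6 μM) in 50 mM EPPS pH 8.5, 25 mM MgCl2, run for 4 h at 42 °C. The ligated products were sequenced on a MiSeq, and only reads with quality ≥30 at all randomized positions were counted. Enrichment is the abundance after ligation divided by the abundance before ligation.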
For CGTAC, the ligation selection enrichment was 0.447 ± 0.0085. CGTAG was tested, and the ligation selection enrichment was 0.612 ± 0.083. CGTAA was tested, and the ligation selection enrichment was 0.311 ± 0.023. With GGACA the ligation selection enrichment was 0.256 ± 0.046. Work on ATAAT yielded a ligation selection enrichment of 2.48 ± 0.27. ATCGG gave a ligation selection enrichment of 0.801 ± 0.021. Work on CTGGA yielded a ligation selection enrichment of 0.282 ± 0.086. In the case of TGTCT, the ligation selection enrichment is reported as 0.335 ± 0.099. ATGAA showed a ligation selection enrichment of 0.823 ± 0.12. ATGAG showed a ligation selection enrichment of 0.834 ± 0.057. In the case of GGATT, the ligation selection enrichment is reported as 1.31 ± 0.31. Work on GGATG yielded a ligation selection enrichment of 0.732 ± 0.14. With AAAAA the ligation selection enrichment was 0.191 ± 0.076. With GTGAG the ligation selection enrichment was 1.24 ± 0.03. In the case of TGATC, the ligation selection enrichment is reported as 0.143 ± 0.062. With TGATA the ligation selection enrichment was 0.4829 ± 0.0015. GGAGA gave a ligation selection enrichment of 0.285 ± 0.02. TCGAC showed a ligation selection enrichment of 1.74 ± 0.36. Variant TCGAT has a ligation selection enrichment of 13.3 ± 3.8. For TCGAG, the ligation selection enrichment was 0.7035 ± 0.0067. TTAGA gave a ligation selection enrichment of 0.304 ± 0.054. Variant ATCTC has a ligation selection enrichment of 0.078 ± 0.025. In the case of CTTTA, the ligation selection enrichment is reported as 0.398 ± 0.12. In the case of CTTTG, the ligation selection enrichment is reported as 1.41 ± 0.7. Variant CTTTC has a ligation selection enrichment of 0.2049 ± 0.00081. In the case of GGGGT, the ligation selection enrichment is reported as 0.345 ± 0.11. Variant GGGGG has a ligation selection enrichment of 0.405 ± 0.028. With GGGGA the ligation selection enrichment was 0.608 ± 0.042. With GGGGC the ligation selection enrichment was 0.21 ± 0.0028. In the case of CAGCG, the ligation selection enrichment is reported as 0.535 ± 0.21. In the case of ATATT, the ligation selection enrichment is reported as 0.203 ± 0.037. For GAAAA, the ligation selection enrichment was 0.135 ± 0.02. Work on TCTAT yielded a ligation selection enrichment of 0.102 ± 0.035. For CGAGA, the ligation selection enrichment was 0.348 ± 0.084. Variant CGATG has a ligation selection enrichment of 1.3 ± 0.22. Variant CGATT has a ligation selection enrichment of 4.38 ± 0.59. Work on GCGTA yielded a ligation selection enrichment of 0.332 ± 0.038. For GCGTG, the ligation selection enrichment was 0.272 ± 0.018. In the case of GCTAT, the ligation selection enrichment is reported as 0.196 ± 0.035. Variant TTTAA has a ligation selection enrichment of 0.18 ± 0.0051. Work on GGCGT yielded a ligation selection enrichment of 0.168 ± 0.023. GGCGC showed a ligation selection enrichment of 0.2927 ± 0.0028. TCGTG showed a ligation selection enrichment of 0.173 ± 0.047. TCGTA gave a ligation selection enrichment of 0.31 ± 0.074. CGTGT was tested, and the ligation selection enrichment was 0.172 ± 0.066. Work on CGTGC yielded a ligation selection enrichment of 0.196 ± 0.039. In the case of CACTA, the ligation selection enrichment is reported as 0.157 ± 0.041. AAACC was tested, and the ligation selection enrichment was 0.196 ± 0.0049. For AAACT, the ligation selection enrichment was 1.21 ± 0.29. Work on AAACG yielded a ligation selection enrichment of 0.742 ± 0.064. In the case of CTAGA, the ligation selection enrichment is reported as 0.263 ± 0.038. With CTAGC the ligation selection enrichment was 0.123 ± 0.0069. CCGTC was tested, and the ligation selection enrichment was 0.178 ± 0.022. With AGACA the ligation selection enrichment was 0.206 ± 0.011. In the case of TACCC, the ligation selection enrichment is reported as 0.202 ± 0.003. With TACCA the ligation selection enrichment was 0.184 ± 0.011. TCGGG gave a ligation selection enrichment of 0.41 ± 0.01. ACACT was tested, and the ligation selection enrichment was 0.474 ± 0.18. GTCGA showed a ligation selection enrichment of 2.56 ± 0.37. With GTCGC the ligation selection enrichment was 0.371 ± 0.033. For TATAC, the ligation selection enrichment was 0.22 ± 0.0018. TATAA showed a ligation selection enrichment of 0.182 ± 0.077. Work on CGCGC yielded a ligation selection enrichment of 0.223 ± 0.025. In the case of CGCGG, the ligation selection enrichment is reported as 0.533 ± 0.12. ATGTC showed a ligation selection enrichment of 0.1721 ± 0.0012. TATTT showed a ligation selection enrichment of 0.402 ± 0.22. In the case of GCCAG, the ligation selection enrichment is reported as 0.28 ± 0.021. Variant GCCAC has a ligation selection enrichment of 0.176 ± 0.031. AACCT gave a ligation selection enrichment of 0.845 ± 0.39. Variant GTACC has a ligation selection enrichment of 0.165 ± 0.011. With CAACA the ligation selection enrichment was 0.1345 ± 0.00036. CCGGT gave a ligation selection enrichment of 0.152 ± 0.021. Variant CCGGG has a ligation selection enrichment of 0.244 ± 0.014. For CCGGC, the ligation selection enrichment was 0.1797 ± 0.00074. GGAAT showed a ligation selection enrichment of 2.23 ± 0.17. GGAAG gave a ligation selection enrichment of 0.341 ± 0.011. For AATCA, the ligation selection enrichment was 0.454 ± 0.023. CTGCT showed a ligation selection enrichment of 0.833 ± 0.12. TTTCC showed a ligation selection enrichment of 0.258 ± 0.0071. With AATAG the ligation selection enrichment was 0.39 ± 0.091. Work on AATAC yielded a ligation selection enrichment of 0.183 ± 0.0067. In the case of GTCCC, the ligation selection enrichment is reported as 0.151 ± 0.0044. GCATT was tested, and the ligation selection enrichment was 0.257 ± 0.043.
